One substance from patent publication US20090074762A1 can be followed below.

For this experiment, the target named is T1, TweakR on cells (TweakR-expressing cells, TweakR transfectant cell line, A375 melanoma cells, tumor tissue) (human) (UniProt Q9NP84).
T1 sequence: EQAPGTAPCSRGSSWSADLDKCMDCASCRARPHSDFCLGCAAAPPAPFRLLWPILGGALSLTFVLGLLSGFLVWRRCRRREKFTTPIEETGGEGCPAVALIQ
In words: cell-based or functional assay.

anti-TweakR antibody ITEM2 showed an agonist activity (IL-8 release assay) of 28%.
